Patent US20190100587A1 (COVAGEN, published 2019)
Where two headings read alike, the source gives them in different places.

Assays:
[1] = target: Human C1q (EMD Millipore) (human, UniProt P02745 23-245; P02746 28-253; P02747 29-245); assay: SPR (BIAcore T100), antibody on CM5 chip, C1q injected, steady-state model
[2] = target: T1, human recombinant FcγRI (Sino Biological) (human, UniProt P12314 16-288, limits assumed); assay: SPR (BIAcore), FcγRI on chip, steady-state model
T1 construct: Amine-coupled to a BIAcore CM5 chip (1500 RU); also called CD64

[3] = target: T2, His-tagged human FcγRIIB (R&D, carrier-free formulation) (human, UniProt P31994 46-217, limits assumed); assay: AlphaScreen competition assay; titrated antibody competes with biotinylated B21M IgG1 for His-tagged human FcγRIIB
T2 construct: also called CD32B
T2 sequence (looked up): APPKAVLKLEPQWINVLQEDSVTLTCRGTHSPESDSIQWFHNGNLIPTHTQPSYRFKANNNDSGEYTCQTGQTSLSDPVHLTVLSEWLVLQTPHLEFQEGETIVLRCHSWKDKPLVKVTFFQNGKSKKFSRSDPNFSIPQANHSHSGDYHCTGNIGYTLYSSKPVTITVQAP

[4] = target: T3, His-tagged human FcγRIIA (R&D, carrier-free formulation) (human, UniProt P12318 36-218, limits assumed); assay: AlphaScreen competition assay; titrated antibody competes with biotinylated B21M IgG1 for His-tagged human FcγRIIA
T3 construct: also called CD32A
T3 sequence (looked up): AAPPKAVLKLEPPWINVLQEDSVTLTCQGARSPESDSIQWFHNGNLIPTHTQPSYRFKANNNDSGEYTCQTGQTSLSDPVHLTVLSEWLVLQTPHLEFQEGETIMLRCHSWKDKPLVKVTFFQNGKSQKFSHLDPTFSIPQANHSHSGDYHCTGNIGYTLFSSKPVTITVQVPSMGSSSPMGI

[5] = target: T4, His-tagged human FcγRIIIA (R&D, carrier-free formulation) (human, UniProt P08637 17-208); assay: AlphaScreen competition assay; titrated antibody competes with biotinylated B21M IgG1 for His-tagged human FcγRIIIA
T4 construct: also called CD16A

[6] = target: T5, human recombinant FcRn (Sino Biological) (human, UniProt P55899 24-297; P61769 21-119); assay: SPR (BIAcore), FcRn on chip, pH 6.0, steady-state model
T5 construct: Amine-coupled to a CM5 chip (600 RU); also called neonatal Fc receptor

[7] = target: T4, His-tagged human FcγRIIIA (R&D, …); assay: AlphaScreen competition assay; titrated antibody competes with biotinylated B21M IgG1 for His-tagged human FcγRIIIA; remark: listed apart in the source
[8] = target: T6, human recombinant FcγRIIIA (158F; R&D Systems) (human, UniProt P08637 17-208); assay: SPR (BIAcore), FcγRIIIA 158F on chip, kinetic (koff/kon)
T6 construct: Amine-coupled to a BIAcore CM5 chip (1400 RU); also called CD16A

[9] = target: T7, human CD3 on CD3+ Jurkat cells (human); assay: flow cytometry on CD3+ Jurkat cells, bound antibody detected with anti-human IgG-Alexa488
T7 construct: whole, on cells

[10] = target: T1, human recombinant FcγRI (Sino …); assay: SPR (BIAcore), FcγRI on chip, 1:1 Langmuir model
[11] = target: T3, His-tagged human FcγRIIA (R&D, …); assay: AlphaScreen competition assay; titrated antibody competes with biotinylated B21M IgG1 for His-tagged human FcγRIIA; remark: listed apart in the source
[12] = target: T1, human recombinant FcγRI (Sino …); assay: SPR (BIAcore), FcγRI on chip, kinetic (koff/kon)
[13] = target: T6, human recombinant FcγRIIIA (158F; R&D …); assay: SPR (BIAcore), FcγRIIIA 158F on chip, steady-state model
[14] = target: T6, human recombinant FcγRIIIA (158F; R&D …); assay: SPR (BIAcore), FcγRIIIA 158F on chip, 1:1 Langmuir model
[15] = target: T8, His-tagged human FcγRI (R&D, carrier-free formulation) (human, UniProt P12314 16-288); assay: AlphaScreen competition on His-tagged FcγRI; competitor biotinylated B21M LALA IgG1
T8 construct: also called CD64; human FcγR1
T8 sequence (P12314 16-288 limits assumed): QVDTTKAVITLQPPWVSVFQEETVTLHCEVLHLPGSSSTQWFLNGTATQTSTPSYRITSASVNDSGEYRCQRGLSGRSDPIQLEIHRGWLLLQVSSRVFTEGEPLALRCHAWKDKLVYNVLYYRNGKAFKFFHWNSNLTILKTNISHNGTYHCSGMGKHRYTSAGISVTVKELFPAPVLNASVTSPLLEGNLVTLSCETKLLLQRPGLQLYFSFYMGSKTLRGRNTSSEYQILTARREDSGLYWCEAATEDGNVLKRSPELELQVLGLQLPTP

T6 sequence (P08637 17-208 limits assumed): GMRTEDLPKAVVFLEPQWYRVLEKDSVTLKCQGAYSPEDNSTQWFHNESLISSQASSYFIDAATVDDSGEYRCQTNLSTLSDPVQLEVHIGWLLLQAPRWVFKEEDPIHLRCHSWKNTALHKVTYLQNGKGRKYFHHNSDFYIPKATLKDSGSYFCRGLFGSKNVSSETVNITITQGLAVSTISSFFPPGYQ
T1 sequence (P12314 16-288 limits assumed): as the sequence (P12314 16-288 limits assumed) above
T4 sequence (P08637 17-208 limits assumed): as the sequence (P08637 17-208 limits assumed) above
Chain of Human C1q (EMD Millipore) (P02745 23-245 limits assumed, chain 1 of 3): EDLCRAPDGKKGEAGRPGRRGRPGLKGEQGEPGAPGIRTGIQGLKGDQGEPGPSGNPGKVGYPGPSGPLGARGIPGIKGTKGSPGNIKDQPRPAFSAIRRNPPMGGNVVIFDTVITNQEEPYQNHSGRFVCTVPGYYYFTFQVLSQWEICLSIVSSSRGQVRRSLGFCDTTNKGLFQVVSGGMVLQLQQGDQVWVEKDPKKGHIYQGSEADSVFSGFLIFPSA
Chain of Human C1q (EMD Millipore) (P02746 28-253 limits assumed, chain 2 of 3): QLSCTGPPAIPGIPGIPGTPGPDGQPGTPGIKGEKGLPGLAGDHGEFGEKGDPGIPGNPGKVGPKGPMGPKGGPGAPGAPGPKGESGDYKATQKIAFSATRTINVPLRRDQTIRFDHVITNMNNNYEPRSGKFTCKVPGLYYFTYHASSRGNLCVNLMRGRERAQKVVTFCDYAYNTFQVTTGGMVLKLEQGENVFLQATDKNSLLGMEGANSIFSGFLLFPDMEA
Chain of Human C1q (EMD Millipore) (P02747 29-245 limits assumed, chain 3 of 3): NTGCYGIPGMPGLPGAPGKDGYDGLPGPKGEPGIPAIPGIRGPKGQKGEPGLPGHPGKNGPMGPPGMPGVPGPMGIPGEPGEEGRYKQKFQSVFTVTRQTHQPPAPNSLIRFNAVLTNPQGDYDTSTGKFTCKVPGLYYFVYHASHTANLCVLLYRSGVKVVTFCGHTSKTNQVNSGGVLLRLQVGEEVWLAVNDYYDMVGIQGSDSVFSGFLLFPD
T5 sequence (P55899 24-297 limits assumed, chain 1 of 2): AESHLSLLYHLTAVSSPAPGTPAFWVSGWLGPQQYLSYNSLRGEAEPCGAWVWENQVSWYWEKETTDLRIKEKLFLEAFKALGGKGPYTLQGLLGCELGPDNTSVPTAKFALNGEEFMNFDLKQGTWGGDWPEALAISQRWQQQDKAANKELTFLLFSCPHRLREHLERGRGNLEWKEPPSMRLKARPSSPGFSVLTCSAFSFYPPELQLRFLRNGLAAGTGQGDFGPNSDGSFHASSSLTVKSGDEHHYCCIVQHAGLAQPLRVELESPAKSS
T5 sequence (P61769 21-119 limits assumed, chain 2 of 2): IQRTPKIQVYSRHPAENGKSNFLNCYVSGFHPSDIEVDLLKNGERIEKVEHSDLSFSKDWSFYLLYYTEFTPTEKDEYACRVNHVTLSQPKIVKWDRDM
T7 sequence (P07766 23-207, chain 1 of 4): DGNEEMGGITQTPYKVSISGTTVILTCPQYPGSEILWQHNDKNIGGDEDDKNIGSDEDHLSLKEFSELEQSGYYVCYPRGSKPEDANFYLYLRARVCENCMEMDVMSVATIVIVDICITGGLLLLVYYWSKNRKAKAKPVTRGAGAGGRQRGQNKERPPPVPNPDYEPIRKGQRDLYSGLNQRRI
T7 sequence (P09693 23-182, chain 2 of 4, further chain): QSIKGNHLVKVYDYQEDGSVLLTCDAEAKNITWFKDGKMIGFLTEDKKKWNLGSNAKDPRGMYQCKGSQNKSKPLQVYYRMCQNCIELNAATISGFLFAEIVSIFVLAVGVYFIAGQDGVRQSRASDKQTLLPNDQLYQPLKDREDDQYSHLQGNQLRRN
T7 sequence (P04234 22-171, chain 3 of 4, further chain): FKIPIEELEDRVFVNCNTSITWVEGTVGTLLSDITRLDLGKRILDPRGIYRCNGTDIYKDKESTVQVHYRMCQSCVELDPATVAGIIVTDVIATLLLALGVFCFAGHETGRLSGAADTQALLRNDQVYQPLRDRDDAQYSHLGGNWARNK
T7 sequence (P20963 22-164, chain 4 of 4, further chain): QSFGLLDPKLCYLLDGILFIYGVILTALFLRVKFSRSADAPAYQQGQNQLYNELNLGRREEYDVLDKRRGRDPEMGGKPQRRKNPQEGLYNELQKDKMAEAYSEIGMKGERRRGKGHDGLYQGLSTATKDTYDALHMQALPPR

B1: mAb1 IgG1 (antibody)
heavy: not shown
light: QVVLTQSPAIMSAFPGEKVTMTCSASSSVSYMNWYQQKSGTSPKRWIYDSSKLASGVPARFSGSGSGTSYSLTISSMETEDAATYYCQQWSRNPPTFGGGTKLQITRTVAAPSVFIFPPSDEQLKSGTASVVCLLNNFYPREAKVQWKVDNALQSGNSQESVTEQDSKDSTYSLSSTLTLSKADYEKHKVYACEVTHQGLSSPVTKSFNRGEC
notes: Human IgG1 antibody specific to human CD3, wild-type Fc; also called unmodified IgG; unmutated mAb1 IgG1
Kd [1]: 30 nM
Kd [2]: 243 nM
IC50 (read off the curve) [3]: ~200 nM
IC50 (read off the curve) [4]: ~200 nM
IC50 (read off the curve) [5]: ~40 nM
Kd [6]: 470 nM
IC50 (read off the curve) [7]: ~40 nM
Kd [8]: 674 nM
EC50 (read off the curve) [9]: ~0.1 nM
koff [10]: 0.00729 s⁻¹
kon [10]: 64900 M⁻¹ s⁻¹
IC50 (read off the curve) [11]: ~200 nM
Kd [12]: 112 nM
Kd [13]: 956 nM
koff [14]: 0.0214 s⁻¹
kon [14]: 31800 M⁻¹ s⁻¹
IC50 [15]: 2.27 nM
IC50 relative to IgG1 [15]: 1 fold
